{"source": "paper PMC6761512", "about": "“Trypanosoma cruzi Phosphomannomutase and Guanosine Diphosphate-Mannose Pyrophosphorylase Ligandability Assessment” (Antimicrobial Agents and Chemotherapy, 2019)", "key": {"[1]": {"substrate": "O=P(O)(O)OC[C@H]1O[C@H](OP(=O)(O)O)[C@H](O)[C@@H](O)[C@@H]1O", "test": "Km determination with the PMM-GDP-MP assay", "type": "biochemical, Trypanosoma cruzi", "conditions": "other: PMM substrate and cofactor, mean of three independent replicates, pH 7.5", "protocol": "(§1) All enzyme and substrate solution dilutions were prepared in assay buffer comprising 25 mM Tris-HCl (pH 7.5), 150 mM NaCl, 4 mM MgCl2, 0.01% (vol/vol) Tween 20, and 1 mM dithiothreitol in ultrapure water. Biochemical assays were performed in a 50-μl final assay volume using clear 384-well assay microplates (Greiner, catalog no. 781101) at room temperature. Unless stated otherwise, all reagent concentrations are written as final biochemical assay concentrations, and DMSO or compounds were added to assay plates using Echo acoustic dispensers (Labcyte). Reagent addition for high-throughput screening assays was performed using an Xrd-384 liquid dispenser (FluidX, UK) and a BioFill Solo/Xrd-384 16 channel resin nozzle (2.00 to 200 μl) tubing cartridge (FluidX, catalog no. 34-1005-S). Biochemical reactions were terminated by addition of 50 μl of BIOMOL Green (Enzo Life Sciences, catalog no. BML-AK111-1000) reagent, after which absorbance was measured following a 30-min incubation at room temperature. Absorbance measurements were performed at 650 nm using a PHERAStar microplate reader (BMG Labtech, Germany), and the data are represented as relative absorbance units (RAU). Linear and nonlinear regression was performed using the SigmaPlot 12.5 software, unless stated otherwise.\n(§2) To measure the activity of the T. cruzi PMM enzyme, a PMM-GDP-MP biochemical assay system was used. […]"}, "[2]": {"substrate": "O=C[C@@H](O)[C@@H](O)[C@H](O)[C@H](O)COP(=O)(O)O", "test": "Km determination with the PMM-GDP-MP assay", "type": "biochemical, Trypanosoma cruzi", "conditions": "other: PMM substrate and cofactor, mean of three independent replicates, pH 7.5", "protocol": "as §1, §2"}, "[3]": {"substrate": "Nc1nc2c(ncn2[C@@H]2O[C@H](COP(=O)(O)OP(=O)(O)OP(=O)(O)O)[C@@H](O)[C@H]2O)c(=O)[nH]1", "test": "Km determination with the GDP-MP assay", "type": "biochemical", "conditions": "other: GDP-MP substrates; mean of three independent replicates; pH 7.5", "protocol": "as §1, with “otherwise. […]” for “otherwise.”"}, "[4]": {"substrate": "O=P(O)(O)O[C@H]1O[C@H](CO)[C@@H](O)[C@H](O)[C@@H]1O", "test": "Km determination with the GDP-MP assay", "type": "biochemical", "conditions": "other: GDP-MP substrates; mean of three independent replicates; pH 7.5", "protocol": "as §1, with “otherwise. […]” for “otherwise.”"}}}
{"protein": "T. cruzi PMM enzyme (Trypanosoma cruzi strain CL Brener) (protein) MKKVLLLFDIDGTLTPPRLSQPDEVREVIRRAKSAGFTVGTVGGSDLAKQIEQLGEDVFQQFDYVFAENGLLAYKHGKEIHRQNLLKELGNERIVKFVRRALRLLSELDIPVQRGTFIEYRNGMINVCPIGRNCTQSERDEFEVYDKEHHVREKLIKELQNSFPDYGLKYSIGGQISFDVFPVGWDKSYCLRFVENDFDEIHFFGDKTHAGGNDYEIYTDKRIIGHAVKSYKDTVDEVNKLISSK", "values": [{"measurement": "Km", "setting": "[1]", "result": 7.8, "unit": "µM"}, {"measurement": "Km", "setting": "[2]", "result": 48.2, "unit": "µM"}]}
{"protein": "T. cruzi GDP-MP enzyme (Trypanosoma cruzi strain CL Brener) (protein) MSEEKKSVANSKGMRAVILVGGYGTRLRPLTLTMPKPLVPFCNKPIIVHQVEALRDAGVTEVILAVAYRSDAMRKNMDYWSKELGVSFVFSLEEEPLGTAGPLALARDILLQDDQPFFVLNADITCRFPLRELLSFHQKSGKEGTIAVTKVTDWQKYGVVVFDEATGVIDQFVEKPKNFVGDRINAGIYVFNKSVLNRIKVEKTSIETQVFPQMASAKQLCAFILEGFWMDIGVPKDYIEGVGKYLRSLNGTPKESQEVYGFGQAHKTDDFTVIGSVIIDPSAKIGKGCVIGPFATIGPGCVIGPTSRIRNSAILDESTIGKGTLVDSSIIGWKSRVGSWCRVVNNTVLGEDVEVKDELFLNGIKVLPNKSILQSYHEPEVVM", "values": [{"measurement": "Km", "setting": "[3]", "result": 40.7, "unit": "µM"}, {"measurement": "Km", "setting": "[4]", "result": 13.3, "unit": "µM"}]}
